To fix the notation:
B1: Protein S100-G, residues 1 to 79; numbered along this chain, P02633 (parent)
chain: MSAKKSPEELKGIFEKYAAKEGDPNQLSKEELKLLLQTEFPSLLKGPSTLDELFEELDKNGDGEVSFEEFQVLVKKISQ

± gives the uncertainty stated by the source.

The series covers variants of B1. Description: abundance fitness (aPCA) (normalised: wild type 0, dead -1); higher = more abundant; growth selection in yeast, the domain comes from the species named. The settings on record: Bos taurus.
As to MSAKKSPEELKGIFEKYAAKEGDPNQLSKEELKLLLQTEFPSLLKGPSTLDELFTELDKNGDGEVSFEEFQVLVKKISQ, the abundance fitness was determined as 0.005 ± 0.071. Turning to MSAKKSPEELKGIFEKYAAKEGDPNQLSKEELKLLLQTEFPSLLKGPSTLDELFAELDKNGDGEVSFEEFQVLVKKISQ, the abundance fitness is -0.045 ± 0.072.

Turning to MSAKKSPEELKGIFEKYAAKEGDPNQLSKEELKLLLQTEFPSLLKGPSTLDELFMELDKNGDGEVSFEEFQVLVKKISQ, the abundance fitness is 0.004 ± 0.078. Take MSAKKSPEELKGIFEKYAAKEGDPNQLSKEELKLLLQTEFPSLLKGPSTLDELFYELDKNGDGEVSFEEFQVLVKKISQ: the abundance fitness came to 0.058 ± 0.088. Next, MSAKKSPEELKGIFEKYAAKEGDPNQLSKEELKLLLQTEFPSLLKGPSTLDELFIELDKNGDGEVSFEEFQVLVKKISQ: -0.035 ± 0.082.

As to MSAKKSPEELKGIFEKYAAKEGDPNQLSKEELKLLLQTEFPSLLKGPSTLDELFRELDKNGDGEVSFEEFQVLVKKISQ, the abundance fitness stood at 0.001 ± 0.064. With MSAKKSPEELKGIFEKYAAKEGDPNQLSKEELKLLLQTEFPSLLKGPSTLDELFPELDKNGDGEVSFEEFQVLVKKISQ, the abundance fitness amounted to 0.012 ± 0.077. With MSAKKSPEELKGIFEKYAAKEGDPNQLSKEELKLLLQTEFPSLLKGPSTLDELFKELDKNGDGEVSFEEFQVLVKKISQ, the abundance fitness was -0.047 ± 0.082. Regarding MSAKKSPEELKGIFEKYAAKEGDPNQLSKEELKLLLQTEFPSLLKGPSTLDELFLELDKNGDGEVSFEEFQVLVKKISQ, the abundance fitness was determined as 0.04 ± 0.063. Turning to MSAKKSPEELKGIFEKYAAKEGDPNQLSKEELKLLLQTEFPSLLKGPSTLDELFDELDKNGDGEVSFEEFQVLVKKISQ, the abundance fitness came to 0.033 ± 0.089. Consider MSAKKSPEELKGIFEKYAAKEGDPNQLSKEELKLLLQTEFPSLLKGPSTLDELFCELDKNGDGEVSFEEFQVLVKKISQ, for which the abundance fitness is -0.014 ± 0.092. As to MSAKKSPEELKGIFEKYAAKEGDPNQLSKEELKLLLQTEFPSLLKGPSTLDELFFELDKNGDGEVSFEEFQVLVKKISQ, the abundance fitness was determined as 0.055 ± 0.082. Take MSAKKSPEELKGIFEKYAAKEGDPNQLSKEELKLLLQTEFPSLLKGPSTLDELFGELDKNGDGEVSFEEFQVLVKKISQ: the abundance fitness was determined as 0.02 ± 0.073. Turning to MSAKKSPEELKGIFEKYAAKEGDPNQLSKEELKLLLQTEFPSLLKGPSTLDELFSELDKNGDGEVSFEEFQVLVKKISQ, the abundance fitness was -0.024 ± 0.064. For MSAKKSPEELKGIFEKYAAKEGDPNQLSKEELKLLLQTEFPSLLKGPSTLDELFQELDKNGDGEVSFEEFQVLVKKISQ, the abundance fitness was 0.031 ± 0.084.

As for MSAKKSPEELKGIFEKYAAKEGDPNQLSKEELKLLLQTEFPSLLKGPSTLDELFWELDKNGDGEVSFEEFQVLVKKISQ, the abundance fitness is 0.011 ± 0.083. Next, MSAKKSPEELKGIFEKYAAKEGDPNQLSKEELKLLLQTEFPSLLKGPSTLDELFHELDKNGDGEVSFEEFQVLVKKISQ: 0.005 ± 0.084; MSAKKSPEELKGIFEKYAAKEGDPNQLSKEELKLLLQTEFPSLLKGPSTLDELFVELDKNGDGEVSFEEFQVLVKKISQ: -0.012 ± 0.068; MSAKKSPEELKGIFEKYAAKEGDPNQLSKEELKLLLQTEFPSLLKGPSTLDSLFEELDKNGDGEVSFEEFQVLVKKISQ: -0.009 ± 0.063. MSAKKSPEELKGIFEKYAAKEGDPNQLSKEELKLLLQTEFPSLLKGPSTLDLLFEELDKNGDGEVSFEEFQVLVKKISQ: the abundance fitness was -0.001 ± 0.063. The result for MSAKKSPEELKGIFEKYAAKEGDPNQLSKEELKLLLQTEFPSLLKGPSTLDQLFEELDKNGDGEVSFEEFQVLVKKISQ reads -0.023 ± 0.079; that for MSAKKSPEELKGIFEKYAAKEGDPNQLSKEELKLLLQTEFPSLLKGPSTLDWLFEELDKNGDGEVSFEEFQVLVKKISQ, -0.084 ± 0.08.

As to MSAKKSPEELKGIFEKYAAKEGDPNQLSKEELKLLLQTEFPSLLKGPSTLDTLFEELDKNGDGEVSFEEFQVLVKKISQ, the abundance fitness was 0.064 ± 0.069. With MSAKKSPEELKGIFEKYAAKEGDPNQLSKEELKLLLQTEFPSLLKGPSTLDNLFEELDKNGDGEVSFEEFQVLVKKISQ, the abundance fitness was -0.002 ± 0.08. With MSAKKSPEELKGIFEKYAAKEGDPNQLSKEELKLLLQTEFPSLLKGPSTLDMLFEELDKNGDGEVSFEEFQVLVKKISQ, the abundance fitness was -0.031 ± 0.079. Regarding MSAKKSPEELKGIFEKYAAKEGDPNQLSKEELKLLLQTEFPSLLKGPSTLDVLFEELDKNGDGEVSFEEFQVLVKKISQ, the abundance fitness is -0.024 ± 0.064. Next, MSAKKSPEELKGIFEKYAAKEGDPNQLSKEELKLLLQTEFPSLLKGPSTLDPLFEELDKNGDGEVSFEEFQVLVKKISQ: -0.037 ± 0.071; MSAKKSPEELKGIFEKYAAKEGDPNQLSKEELKLLLQTEFPSLLKGPSTLDRLFEELDKNGDGEVSFEEFQVLVKKISQ: -0.046 ± 0.063; MSAKKSPEELKGIFEKYAAKEGDPNQLSKEELKLLLQTEFPSLLKGPSTLDYLFEELDKNGDGEVSFEEFQVLVKKISQ: -0.108 ± 0.08.

Turning to MSAKKSPEELKGIFEKYAAKEGDPNQLSKEELKLLLQTEFPSLLKGPSTLDELFEGLDKNGDGEVSFEEFQVLVKKISQ, the abundance fitness is -0.006 ± 0.08. The result for MSAKKSPEELKGIFEKYAAKEGDPNQLSKEELKLLLQTEFPSLLKGPSTLDELFECLDKNGDGEVSFEEFQVLVKKISQ reads 0.065 ± 0.086; that for MSAKKSPEELKGIFEKYAAKEGDPNQLSKEELKLLLQTEFPSLLKGPSTLDELFEALDKNGDGEVSFEEFQVLVKKISQ, -0.042 ± 0.082.

In the case of MSAKKSPEELKGIFEKYAAKEGDPNQLSKEELKLLLQTEFPSLLKGPSTLDEKFEELDKNGDGEVSFEEFQVLVKKISQ, the abundance fitness was -0.033 ± 0.08.

Turning to MSAKKSPEELKGIFEKYAAKEGDPNQLSKEELKLLLQTEFPSLLKGPSTLDERFEELDKNGDGEVSFEEFQVLVKKISQ, the abundance fitness is -0.031 ± 0.063.

(Values after the Human Domainome abundance scans (Beltran et al. 2025).)
